This experiment addresses C3b (Homo sapiens, UniProt P01024). The experiment is described as follows: AlphaAssay.

C3b, sequence (P01024 23-667, chain 1 of 2): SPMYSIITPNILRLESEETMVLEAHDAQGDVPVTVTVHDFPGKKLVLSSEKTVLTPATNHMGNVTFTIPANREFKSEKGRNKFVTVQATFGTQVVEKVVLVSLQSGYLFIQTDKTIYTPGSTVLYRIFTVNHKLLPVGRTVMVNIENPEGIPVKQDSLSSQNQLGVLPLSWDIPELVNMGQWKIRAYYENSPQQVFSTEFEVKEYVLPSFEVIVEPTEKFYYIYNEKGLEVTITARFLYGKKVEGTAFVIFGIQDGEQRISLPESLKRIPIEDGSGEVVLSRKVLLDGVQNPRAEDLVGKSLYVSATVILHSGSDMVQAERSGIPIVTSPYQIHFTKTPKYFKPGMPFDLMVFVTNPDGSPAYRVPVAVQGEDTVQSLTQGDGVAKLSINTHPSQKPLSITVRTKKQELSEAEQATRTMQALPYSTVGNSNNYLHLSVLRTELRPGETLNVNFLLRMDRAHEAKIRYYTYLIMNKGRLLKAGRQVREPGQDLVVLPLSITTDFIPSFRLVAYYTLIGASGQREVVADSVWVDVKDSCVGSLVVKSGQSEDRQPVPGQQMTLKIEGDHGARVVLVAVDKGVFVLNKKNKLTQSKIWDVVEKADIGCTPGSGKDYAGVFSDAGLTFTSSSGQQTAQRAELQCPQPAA
C3b, sequence (P01024 749-1663, chain 2 of 2): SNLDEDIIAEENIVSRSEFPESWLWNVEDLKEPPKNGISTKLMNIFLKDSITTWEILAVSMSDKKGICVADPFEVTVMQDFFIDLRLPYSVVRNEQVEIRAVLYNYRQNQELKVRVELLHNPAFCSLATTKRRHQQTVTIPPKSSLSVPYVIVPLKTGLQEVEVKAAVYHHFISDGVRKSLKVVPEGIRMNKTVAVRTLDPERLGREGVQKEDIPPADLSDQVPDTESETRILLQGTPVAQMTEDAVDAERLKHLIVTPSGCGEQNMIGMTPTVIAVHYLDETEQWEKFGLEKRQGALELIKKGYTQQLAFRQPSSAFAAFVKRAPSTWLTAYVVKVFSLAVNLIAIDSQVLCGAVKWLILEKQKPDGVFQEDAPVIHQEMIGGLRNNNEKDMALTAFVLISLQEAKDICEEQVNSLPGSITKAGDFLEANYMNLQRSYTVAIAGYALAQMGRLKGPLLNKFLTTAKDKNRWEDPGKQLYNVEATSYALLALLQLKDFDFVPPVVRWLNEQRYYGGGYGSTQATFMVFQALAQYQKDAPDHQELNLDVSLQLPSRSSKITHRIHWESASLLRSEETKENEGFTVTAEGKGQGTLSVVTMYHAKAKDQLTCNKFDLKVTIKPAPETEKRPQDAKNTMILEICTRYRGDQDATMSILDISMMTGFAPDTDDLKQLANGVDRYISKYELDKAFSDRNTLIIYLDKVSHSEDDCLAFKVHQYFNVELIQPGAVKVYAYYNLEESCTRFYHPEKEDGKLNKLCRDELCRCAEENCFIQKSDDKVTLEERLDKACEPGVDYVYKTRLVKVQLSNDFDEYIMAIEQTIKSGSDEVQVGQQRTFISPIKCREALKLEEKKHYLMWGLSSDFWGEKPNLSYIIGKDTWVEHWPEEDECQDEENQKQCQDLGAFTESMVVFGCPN

B1: SCIN-A (protein)
chain: STSLPTSNEYQNEKLANELKSLLDELNVNELATGSLNTYYKRTIKISGQKAMYALKSKDFKKMSEAKYQLQKIYNEIDEALKSKY
In the case of B1, the Kd worked out at 74 nM.
